Tests used:
[1] = target: SHP2-C SH2; test: SH2 binding enrichment of the phosphorylated peptide, bacterial display (enrichment ratio); higher = better substrate or ligand; peptides without Tyr show the background
[2] = target: c-Src SH2; test: as above
[3] = target: Grb2 SH2 (UniProt P62993); test: as above
[4] = system: AncSZ; test: phosphorylation enrichment, bacterial display (enrichment ratio); higher = better substrate or ligand; peptides without Tyr show the background
[5] = target: Jak2 (UniProt O60674); test: as above
[6] = target: MERTK (UniProt Q12866); test: as above
[7] = system: c-Abl (mouse); test: as above
[8] = target: EPHB2 (UniProt P29323); test: as above
[9] = system: Fer (mouse); test: as above
[10] = system: c-Src; test: as above
[11] = target: EPHB1 (UniProt P54762); test: as above
[12] = target: FGFR1 (UniProt P11362); test: as above
[13] = target: Fyn (UniProt P06241); test: as above
[14] = target: Fes (UniProt P07332); test: as above
[15] = target: Hck (UniProt P08631); test: as above
[16] = target: FGFR3 (UniProt P22607); test: as above
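Wherever SH2 binding enrichment of the phosphorylated peptide, bacterial display is given: peptide library displayed on the E. coli surface as eCPX fusions, selected cells deep-sequenced, score is each peptide's frequency after selection divided by its frequency in the input.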
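Wherever phosphorylation enrichment, bacterial display is given: 11-residue human phosphosite peptides and single-mutation variants displayed on the E. coli surface, counted by deep sequencing, each peptide's frequency after selection divided by its frequency in the unselected input library; frequency after pTyr selection over input frequency; kinase dosed for 20-30% of maximal phosphorylation in three min.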

MERTK, sequence (Q12866 whole entry, looked up): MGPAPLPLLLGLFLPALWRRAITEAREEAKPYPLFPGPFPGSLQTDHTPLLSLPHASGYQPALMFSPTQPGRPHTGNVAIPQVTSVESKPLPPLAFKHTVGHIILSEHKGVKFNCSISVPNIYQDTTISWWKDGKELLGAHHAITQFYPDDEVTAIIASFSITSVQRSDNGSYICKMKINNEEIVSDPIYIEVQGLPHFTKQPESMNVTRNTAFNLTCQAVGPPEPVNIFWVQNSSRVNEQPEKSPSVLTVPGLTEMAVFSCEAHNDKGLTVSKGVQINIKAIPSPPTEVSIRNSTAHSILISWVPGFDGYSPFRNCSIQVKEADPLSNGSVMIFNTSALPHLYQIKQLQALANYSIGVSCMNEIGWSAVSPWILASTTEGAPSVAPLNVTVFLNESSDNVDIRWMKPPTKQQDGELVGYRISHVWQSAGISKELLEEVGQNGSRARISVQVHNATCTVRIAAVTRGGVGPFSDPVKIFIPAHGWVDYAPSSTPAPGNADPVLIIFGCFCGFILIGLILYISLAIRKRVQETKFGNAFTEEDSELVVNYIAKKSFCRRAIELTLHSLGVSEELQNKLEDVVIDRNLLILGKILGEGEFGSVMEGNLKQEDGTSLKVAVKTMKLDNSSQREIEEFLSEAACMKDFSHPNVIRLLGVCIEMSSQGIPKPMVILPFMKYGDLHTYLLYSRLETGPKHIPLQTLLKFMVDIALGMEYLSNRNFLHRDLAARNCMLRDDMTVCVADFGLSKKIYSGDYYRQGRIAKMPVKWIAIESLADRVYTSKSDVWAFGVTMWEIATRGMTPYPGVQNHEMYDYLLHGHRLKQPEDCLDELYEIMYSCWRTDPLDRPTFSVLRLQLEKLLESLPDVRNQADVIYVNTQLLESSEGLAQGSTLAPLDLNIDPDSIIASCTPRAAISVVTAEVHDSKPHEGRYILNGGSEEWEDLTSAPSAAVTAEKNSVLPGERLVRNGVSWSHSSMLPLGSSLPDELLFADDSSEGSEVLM
Fes, sequence (P07332 whole entry, looked up): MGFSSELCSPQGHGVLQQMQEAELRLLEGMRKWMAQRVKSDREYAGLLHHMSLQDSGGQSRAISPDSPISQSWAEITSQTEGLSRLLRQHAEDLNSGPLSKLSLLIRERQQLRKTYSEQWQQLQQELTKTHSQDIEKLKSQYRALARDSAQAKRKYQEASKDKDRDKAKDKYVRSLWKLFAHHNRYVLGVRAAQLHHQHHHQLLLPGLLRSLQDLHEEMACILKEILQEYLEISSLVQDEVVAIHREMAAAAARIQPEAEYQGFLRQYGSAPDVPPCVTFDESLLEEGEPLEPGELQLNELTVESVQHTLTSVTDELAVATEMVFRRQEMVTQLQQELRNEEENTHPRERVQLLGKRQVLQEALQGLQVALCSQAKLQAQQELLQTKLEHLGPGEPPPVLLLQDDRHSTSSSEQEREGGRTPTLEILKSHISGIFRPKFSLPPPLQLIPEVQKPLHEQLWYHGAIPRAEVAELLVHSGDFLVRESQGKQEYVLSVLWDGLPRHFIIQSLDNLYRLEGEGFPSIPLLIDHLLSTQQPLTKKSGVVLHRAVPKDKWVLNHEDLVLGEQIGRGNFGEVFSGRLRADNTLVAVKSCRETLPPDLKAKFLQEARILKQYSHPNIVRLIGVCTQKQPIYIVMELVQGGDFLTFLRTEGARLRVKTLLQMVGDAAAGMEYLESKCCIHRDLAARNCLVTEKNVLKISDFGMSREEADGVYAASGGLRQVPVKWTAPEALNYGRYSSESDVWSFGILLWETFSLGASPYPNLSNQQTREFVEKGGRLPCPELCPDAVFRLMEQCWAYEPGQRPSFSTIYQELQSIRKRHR
Jak2, sequence (O60674 whole entry, looked up): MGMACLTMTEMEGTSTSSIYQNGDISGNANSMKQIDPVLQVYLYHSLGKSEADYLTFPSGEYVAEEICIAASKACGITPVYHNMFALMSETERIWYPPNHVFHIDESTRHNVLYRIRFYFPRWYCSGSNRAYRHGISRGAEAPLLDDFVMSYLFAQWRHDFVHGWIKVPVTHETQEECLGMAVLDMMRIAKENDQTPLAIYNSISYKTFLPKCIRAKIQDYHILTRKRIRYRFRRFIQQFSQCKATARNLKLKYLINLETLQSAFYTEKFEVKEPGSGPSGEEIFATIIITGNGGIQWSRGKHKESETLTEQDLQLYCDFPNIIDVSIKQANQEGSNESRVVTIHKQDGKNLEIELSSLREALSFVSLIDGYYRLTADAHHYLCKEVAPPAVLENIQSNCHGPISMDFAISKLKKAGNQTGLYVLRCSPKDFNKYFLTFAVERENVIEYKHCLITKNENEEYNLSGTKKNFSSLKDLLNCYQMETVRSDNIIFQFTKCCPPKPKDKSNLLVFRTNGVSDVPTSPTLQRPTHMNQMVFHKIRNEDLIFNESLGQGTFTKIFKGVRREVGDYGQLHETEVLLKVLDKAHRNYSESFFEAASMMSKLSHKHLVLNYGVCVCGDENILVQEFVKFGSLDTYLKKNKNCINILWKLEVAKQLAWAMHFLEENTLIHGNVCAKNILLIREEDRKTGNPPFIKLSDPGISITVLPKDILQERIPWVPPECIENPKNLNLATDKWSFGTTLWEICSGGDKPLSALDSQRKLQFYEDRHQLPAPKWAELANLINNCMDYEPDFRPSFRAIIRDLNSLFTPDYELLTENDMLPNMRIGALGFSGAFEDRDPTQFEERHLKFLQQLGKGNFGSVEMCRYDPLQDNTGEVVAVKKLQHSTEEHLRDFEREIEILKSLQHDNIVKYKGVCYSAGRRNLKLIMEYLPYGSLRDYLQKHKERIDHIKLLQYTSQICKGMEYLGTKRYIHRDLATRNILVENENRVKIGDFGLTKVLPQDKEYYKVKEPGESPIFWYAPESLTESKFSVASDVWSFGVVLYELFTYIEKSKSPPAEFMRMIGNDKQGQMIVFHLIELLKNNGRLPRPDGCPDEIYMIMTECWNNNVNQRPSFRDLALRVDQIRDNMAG
EPHB2, sequence (P29323 whole entry, looked up): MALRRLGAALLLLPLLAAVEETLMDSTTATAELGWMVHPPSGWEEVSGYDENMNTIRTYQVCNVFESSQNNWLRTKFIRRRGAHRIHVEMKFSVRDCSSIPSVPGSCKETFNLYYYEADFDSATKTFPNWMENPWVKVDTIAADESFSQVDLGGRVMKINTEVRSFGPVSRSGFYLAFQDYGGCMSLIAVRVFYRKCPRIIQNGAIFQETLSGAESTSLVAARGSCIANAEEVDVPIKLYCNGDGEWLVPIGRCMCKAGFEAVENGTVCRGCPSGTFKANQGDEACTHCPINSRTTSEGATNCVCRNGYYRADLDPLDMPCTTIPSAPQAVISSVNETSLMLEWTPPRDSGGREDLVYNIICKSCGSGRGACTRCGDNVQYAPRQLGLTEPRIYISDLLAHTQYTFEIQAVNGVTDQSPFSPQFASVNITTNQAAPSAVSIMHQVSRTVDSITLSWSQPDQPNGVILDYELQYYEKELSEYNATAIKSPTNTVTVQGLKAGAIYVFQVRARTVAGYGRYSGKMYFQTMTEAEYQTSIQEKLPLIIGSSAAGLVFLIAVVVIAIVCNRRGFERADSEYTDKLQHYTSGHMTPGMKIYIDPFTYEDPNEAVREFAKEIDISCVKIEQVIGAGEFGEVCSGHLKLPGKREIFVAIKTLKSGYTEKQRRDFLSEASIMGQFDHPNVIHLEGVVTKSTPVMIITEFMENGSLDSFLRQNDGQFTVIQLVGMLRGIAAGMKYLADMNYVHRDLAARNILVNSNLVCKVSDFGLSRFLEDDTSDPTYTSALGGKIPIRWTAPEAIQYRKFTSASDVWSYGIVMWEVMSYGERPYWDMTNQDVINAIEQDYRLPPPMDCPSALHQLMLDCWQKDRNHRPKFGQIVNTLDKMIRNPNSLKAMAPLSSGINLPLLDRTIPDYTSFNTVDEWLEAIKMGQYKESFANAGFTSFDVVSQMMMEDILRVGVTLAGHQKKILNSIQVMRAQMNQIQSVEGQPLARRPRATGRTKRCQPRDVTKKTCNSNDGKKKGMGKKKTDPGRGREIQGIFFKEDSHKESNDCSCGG
Fyn, sequence (P06241 whole entry, looked up): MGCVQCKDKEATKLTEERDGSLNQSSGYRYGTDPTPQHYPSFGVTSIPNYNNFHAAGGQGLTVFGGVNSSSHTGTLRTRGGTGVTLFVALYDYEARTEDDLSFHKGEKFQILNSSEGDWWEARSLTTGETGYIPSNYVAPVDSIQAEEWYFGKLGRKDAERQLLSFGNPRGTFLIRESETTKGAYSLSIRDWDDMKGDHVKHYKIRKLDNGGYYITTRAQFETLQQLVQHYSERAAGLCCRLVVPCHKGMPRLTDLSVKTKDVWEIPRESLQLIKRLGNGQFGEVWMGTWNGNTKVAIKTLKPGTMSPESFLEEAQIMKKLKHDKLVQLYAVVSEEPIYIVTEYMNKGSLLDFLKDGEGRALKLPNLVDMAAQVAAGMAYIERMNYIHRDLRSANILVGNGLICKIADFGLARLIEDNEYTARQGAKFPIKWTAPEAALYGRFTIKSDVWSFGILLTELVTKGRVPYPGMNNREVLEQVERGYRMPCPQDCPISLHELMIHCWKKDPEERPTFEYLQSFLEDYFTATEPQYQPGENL
Hck, sequence (P08631 whole entry, looked up): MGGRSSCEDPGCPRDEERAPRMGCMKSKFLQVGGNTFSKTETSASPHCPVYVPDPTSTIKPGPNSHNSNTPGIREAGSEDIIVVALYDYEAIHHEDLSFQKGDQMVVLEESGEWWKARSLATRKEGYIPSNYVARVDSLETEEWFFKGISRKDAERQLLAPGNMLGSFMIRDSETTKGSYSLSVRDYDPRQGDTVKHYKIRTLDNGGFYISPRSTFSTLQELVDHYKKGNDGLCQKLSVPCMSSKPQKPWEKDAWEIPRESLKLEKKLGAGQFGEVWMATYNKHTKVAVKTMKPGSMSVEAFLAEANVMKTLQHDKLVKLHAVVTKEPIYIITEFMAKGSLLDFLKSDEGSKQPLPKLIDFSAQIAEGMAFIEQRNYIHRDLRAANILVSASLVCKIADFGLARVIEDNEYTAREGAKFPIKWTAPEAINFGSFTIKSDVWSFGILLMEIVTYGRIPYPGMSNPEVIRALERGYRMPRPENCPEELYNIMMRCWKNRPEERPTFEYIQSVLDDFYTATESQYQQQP

| Sequence | SH2 binding enrichment [1] | SH2 binding enrichment [2] | SH2 binding enrichment [3] | phosphorylation enrichment [4] | phosphorylation enrichment [5] | phosphorylation enrichment [6] | phosphorylation enrichment [7] | phosphorylation enrichment [8] | phosphorylation enrichment [9] | phosphorylation enrichment [10] | phosphorylation enrichment [11] | phosphorylation enrichment [12] | phosphorylation enrichment [13] | phosphorylation enrichment [14] | phosphorylation enrichment [15] | phosphorylation enrichment [16] |
| --- | --- | --- | --- | --- | --- | --- | --- | --- | --- | --- | --- | --- | --- | --- | --- | --- |
| LDFNEYVRDLN [HPRT1_Y198_F199V_YF] | 0.795 | 0.617 | 1.13 | 1.69 | 1.31 | 0.556 | 0.911 | 0.665 | 0.634 | 0.567 | 0.804 | 0.532 | 0.674 | 1.47 | 0.707 | 0.628 |
| LDYNEYVRDLN [HPRT1_Y198_F199V] | 1.03 | 0.757 | 0.795 | 1.63 | 1.06 | 0.441 | 0.587 | 0.993 | 0.535 | 0.565 | 0.761 | 0.951 | 0.695 | 1.23 | 0.712 | 1.07 |
| LEAVSYSSRYA [RNLS_Y190] | 0.748 | 0.498 | 0.772 | 0.687 | 0.685 | 0.63 | 0.459 | 0.446 | 0.433 | 0.368 | 0.453 | 0.415 | 0.389 | 0.704 | 0.437 | 0.462 |
| LEFGDYHPLKP [VPS35L_Y32] | 0.733 | 0.58 | 0.902 | 2.75 | 6.7 | 1.66 | 1.19 | 1.26 | 0.846 | 0.821 | 1.3 | 11.5 | 0.696 | 1.05 | 4.28 | 7.68 |
| LEGEEYRMSGE [KRT3_Y511] | 0.562 | 0.461 | 0.908 | 1.69 | 1.58 | 0.462 | 0.956 | 0.598 | 0.937 | 0.525 | 0.891 | 0.574 | 0.797 | 1.41 | 0.531 | 0.929 |
| LEGKEYRMSGE [KRT3_Y511_E509K] | 1.12 | 0.362 | 0.85 | 0.73 | 0.923 | 0.439 | 0.583 | 0.333 | 0.455 | 0.415 | 0.434 | 0.432 | 0.456 | 0.985 | 0.409 | 0.618 |
| LEISPYMLSGR [LRRK2_Y1718] | 0.722 | 0.781 | 0.9 | 0.852 | 0.64 | 0.588 | 0.491 | 1.1 | 0.806 | 0.929 | 1.02 | 0.718 | 1.44 | 1.28 | 0.932 | 0.652 |
| LEYNEYFRDLN [HPRT1_Y198_D194E] | 0.592 | 0.451 | 0.998 | 2.6 | 2.17 | 0.605 | 1.3 | 0.975 | 0.804 | 1.14 | 1.18 | 1.89 | 1.01 | 2.09 | 0.847 | 1.75 |
| LFSINYLHFGD [KDM4C_Y201_E206D_YF] | 1.23 | 1.24 | 1.5 | 1.32 | 1.56 | 0.783 | 0.968 | 0.538 | 0.813 | 0.612 | 1.19 | 1.07 | 0.561 | 1.56 | 0.71 | 1.22 |
| LGSNGCKKLLK [SEPSECS_Y334_Y334C] | 0.786 | 0.849 | 1.02 | 0.823 | 1.06 | 0.866 | 1.06 | 1.04 | 0.472 | 0.663 | 0.611 | 0.661 | 0.567 | 0.826 | 0.768 | 0.868 |
| LGSNTYPFLLM [SAG_Y120_T125M] | 0.435 | 0.427 | 0.808 | 1.12 | 1.31 | 0.36 | 1.05 | 0.783 | 0.646 | 0.713 | 0.835 | 1.91 | 0.384 | 1.73 | 0.492 | 1.86 |
| LHAAAYWNALA [UQCRC2_Y182_R183W] | 1.24 | 1.11 | 1.36 | 0.769 | 0.926 | 0.461 | 0.582 | 0.572 | 0.385 | 0.424 | 0.419 | 0.379 | 0.388 | 0.882 | 0.428 | 0.564 |
| LHQSTYQCFDV [SLC7A14_Y693_R695C_YF] | 0.56 | 0.455 | 0.688 | 1.25 | 1.14 | 2.26 | 1.05 | 0.896 | 2.23 | 5.09 | 2.34 | 1.14 | 3.33 | 1.25 | 1.42 | 1.11 |
| LHSEAYLKYNE [PBRM1_Y1610_I1614N] | 0.862 | 0.497 | 0.955 | 0.751 | 0.744 | 0.397 | 1.25 | 0.45 | 0.311 | 0.586 | 0.393 | 0.409 | 0.35 | 0.757 | 0.395 | 0.585 |
| LIEQAYDNLHE [PRPF8_Y871_P874L] | 0.626 | 5.09 | 0.736 | 1.44 | 0.593 | 0.426 | 0.479 | 0.877 | 0.821 | 0.325 | 0.623 | 0.6 | 0.714 | 1.38 | 1.15 | 1.05 |
| LISVSYDDWDY [GRIN2A_Y281] | 1.39 | 1.9 | 1.07 | 2.2 | 1.35 | 0.691 | 1.01 | 0.827 | 4.25 | 0.652 | 0.813 | 0.901 | 0.773 | 1.92 | 0.666 | 1.05 |
